What was measured:
Assay in all cases: purified protein
purified protein [1] = substrate: O=c1[nH]c(=O)c2ncn([C@@H]3O[C@H](COP(=O)(O)O)[C@@H](O)[C@H]3O)c2[nH]1; conditions: 50 mM imidazole pH 7.0, 5 mM MgCl2, 30 °C
purified protein [2] = substrate: Nc1ncnc2c1ncn2[C@@H]1O[C@H](COP(=O)(O)O)[C@@H](O)[C@H]1O; conditions: 50 mM imidazole pH 7.0, 5 mM MgCl2, 30 °C
purified protein [3] = substrate: Nc1ncnc2c1ncn2[C@H]1C[C@H](O)[C@@H](COP(=O)(O)O)O1; conditions: 50 mM imidazole pH 7.0, 5 mM MgCl2, 30 °C
purified protein [4] = substrate: NC(=O)c1ncn([C@@H]2O[C@H](COP(=O)(O)O)[C@@H](O)[C@H]2O)c1N; conditions: 50 mM imidazole pH 7.0, 5 mM MgCl2, 30 °C, Hill plot fit (sigmoidal kinetics)
purified protein [5] = substrate: Nc1ccn([C@@H]2O[C@H](COP(=O)(O)O)[C@@H](O)[C@H]2O)c(=O)n1; conditions: 50 mM imidazole pH 7.0, 5 mM MgCl2, 30 °C
purified protein [6] = substrate: Nc1nc2c(ncn2[C@@H]2O[C@H](COP(=O)(O)O)[C@@H](O)[C@H]2O)c(=O)[nH]1; conditions: 50 mM imidazole pH 7.0, 5 mM MgCl2, 30 °C
purified protein [7] = substrate: Cc1cc2nc3c(=O)[nH]c(=O)nc-3n(C[C@H](O)[C@H](O)[C@H](O)COP(=O)(O)O)c2cc1C; conditions: 50 mM imidazole pH 7.0, 5 mM MgCl2, 30 °C
purified protein [8] = substrate: Nc1nc2c(ncn2[C@H]2C[C@H](O)[C@@H](COP(=O)(O)O)O2)c(=O)[nH]1; conditions: 50 mM imidazole pH 7.0, 5 mM MgCl2, 30 °C

B1: Ht-YitUBs (Bacillus subtilis subsp. subtilis str. 168) (protein)
chain: METKPYLIALDLDGTLLKDDKTISENTLHTIQRLKDDGHYVCISTGRPYRSSSMYYQQMELTTPIVNFNGAFVHHPQDDSWGRYHTSLPLDVVKQLVDISESYNVHNVLAEVIDDVYFHYHDEHLIDAFNMNTTNVTVGDLRENLGEDVTSVLIHAKEEDVPAIRSYLSDVHAEVIDHRRWAAPWHVIEIIKSGMNKAVGLQKISDYYGVPRERIIAFGDEDNDLEMLEFAGCGVAMGNGIDAVKQIANRTTATNEEDGVARFLKEYFSL
Km (purified protein [1]): 21.74 ± 2.93 mM | Vmax (purified protein [1]): 70.5 µmol/min/mg | kcat (purified protein [1]): 37.5 s⁻¹ | kcat/Km (purified protein [1]): 1720 M⁻¹ s⁻¹ | Km (purified protein [2]): 14.32 ± 1.01 mM | Vmax (purified protein [2]): 52.9 µmol/min/mg | kcat (purified protein [2]): 28.2 s⁻¹ | kcat/Km (purified protein [2]): 1970 M⁻¹ s⁻¹ | Km (purified protein [3]): 8.24 ± 0.42 mM | Vmax (purified protein [3]): 49.4 µmol/min/mg | kcat (purified protein [3]): 26.2 s⁻¹ | kcat/Km (purified protein [3]): 3190 M⁻¹ s⁻¹ | K0.5 (purified protein [4]): 10.19 ± 1.50 mM | Vmax (purified protein [4]): 21.2 µmol/min/mg | kcat (purified protein [4]): 11.3 s⁻¹ | kcat/Km (purified protein [4]): 1110 M⁻¹ s⁻¹ | Km (purified protein [5]): 17.45 ± 1.82 mM | Vmax (purified protein [5]): 73.7 µmol/min/mg | kcat (purified protein [5]): 39.2 s⁻¹ | kcat/Km (purified protein [5]): 2250 M⁻¹ s⁻¹ | Km (purified protein [6]): 7.00 ± 0.29 mM | Vmax (purified protein [6]): 40 µmol/min/mg | kcat (purified protein [6]): 21.3 s⁻¹ | kcat/Km (purified protein [6]): 3040 M⁻¹ s⁻¹ | Km (purified protein [7]): 0.096 ± 0.015 mM | Vmax (purified protein [7]): 43.2 µmol/min/mg | kcat (purified protein [7]): 23 s⁻¹ | kcat/Km (purified protein [7]): 239000 M⁻¹ s⁻¹ | Km (purified protein [8]): 5.61 ± 0.79 mM | Vmax (purified protein [8]): 25.9 µmol/min/mg | kcat (purified protein [8]): 13.8 s⁻¹ | kcat/Km (purified protein [8]): 2460 M⁻¹ s⁻¹
